In article doi:10.1101/2020.04.11.036434 (bioRxiv, 2020):

Legend:
[1] = target: T1, P-Rex2 DEP2-IP4P (residues 472-1606) (UniProt Q70Z35 472-1606); assay: SPR
T1 sequence: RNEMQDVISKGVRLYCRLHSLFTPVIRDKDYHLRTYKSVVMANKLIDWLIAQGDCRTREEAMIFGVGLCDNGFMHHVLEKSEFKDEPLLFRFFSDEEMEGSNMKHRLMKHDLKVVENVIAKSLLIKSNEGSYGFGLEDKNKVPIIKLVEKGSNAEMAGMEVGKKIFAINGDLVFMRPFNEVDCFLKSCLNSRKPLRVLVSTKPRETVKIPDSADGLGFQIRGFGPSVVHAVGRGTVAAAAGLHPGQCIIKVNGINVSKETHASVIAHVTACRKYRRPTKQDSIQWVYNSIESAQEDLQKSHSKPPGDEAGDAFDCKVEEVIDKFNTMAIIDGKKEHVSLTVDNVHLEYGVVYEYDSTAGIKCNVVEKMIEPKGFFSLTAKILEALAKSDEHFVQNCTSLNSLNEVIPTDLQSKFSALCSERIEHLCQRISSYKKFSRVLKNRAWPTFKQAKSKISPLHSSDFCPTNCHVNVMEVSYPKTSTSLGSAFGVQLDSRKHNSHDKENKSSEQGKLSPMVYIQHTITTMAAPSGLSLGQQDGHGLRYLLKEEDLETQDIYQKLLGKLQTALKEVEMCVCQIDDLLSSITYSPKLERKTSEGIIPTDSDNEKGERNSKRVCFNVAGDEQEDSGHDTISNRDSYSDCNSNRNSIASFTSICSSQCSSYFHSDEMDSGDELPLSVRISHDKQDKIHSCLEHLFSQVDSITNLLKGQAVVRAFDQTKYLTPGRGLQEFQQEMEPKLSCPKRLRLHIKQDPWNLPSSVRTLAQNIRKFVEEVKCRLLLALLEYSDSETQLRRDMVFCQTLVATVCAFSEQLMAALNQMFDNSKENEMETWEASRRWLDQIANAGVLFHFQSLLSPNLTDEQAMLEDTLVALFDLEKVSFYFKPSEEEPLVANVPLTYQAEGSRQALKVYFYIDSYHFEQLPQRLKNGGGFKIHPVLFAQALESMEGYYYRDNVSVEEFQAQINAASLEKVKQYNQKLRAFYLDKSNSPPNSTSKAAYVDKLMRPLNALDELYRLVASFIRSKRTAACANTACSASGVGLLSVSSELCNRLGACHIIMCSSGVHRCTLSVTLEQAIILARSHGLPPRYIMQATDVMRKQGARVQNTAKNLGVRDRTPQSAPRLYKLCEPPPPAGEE

[2] = target: P-Rex2 (WT), recombinant full-length (UniProt Q70Z35 1-1606); assay: pull-down

- binding result [1]: binds
- binding result [2]: binds
B1: PTEN (WT), recombinant insect-cell purified (natural protein)
chain: not shown
